Results taken from the Immune Epitope Database (IEDB).

Tests used:
[1] = target: HLA-A*30:01; experiment: IEDB peptide-MHC binding, purified MHC/competitive/radioactivity; filed as Kd, often an IC50 or EC50 that approximates it; ≥ and ≤ were set here for values at or beyond the usual limits of such assays
[2] = target: HLA-B*08:01; experiment: as above
[3] = target: HLA-A*32:01; experiment: as above
[4] = target: HLA-A*02:01; experiment: IEDB peptide-MHC binding, purified MHC/direct/fluorescence; filed as Kd, often an IC50 or EC50 that approximates it; ≥ and ≤ were set here for values at or beyond the usual limits of such assays
[5] = target: HLA-B*40:01; experiment: IEDB peptide-MHC binding, purified MHC/competitive/radioactivity; filed as Kd, often an IC50 or EC50 that approximates it; ≥ and ≤ were set here for values at or beyond the usual limits of such assays
[6] = target: HLA-A*02:01; experiment: IEDB peptide-MHC binding, purified MHC/competitive/fluorescence; ≥ and ≤ were set here for values at or beyond the usual limits of such assays
[7] = target: HLA-B*53:01; experiment: IEDB peptide-MHC binding, purified MHC/competitive/radioactivity; filed as Kd, often an IC50 or EC50 that approximates it; ≥ and ≤ were set here for values at or beyond the usual limits of such assays; details: source organism: Dengue virus 2 Jamaica/1409/1983
[8] = target: HLA-A*23:01; experiment: as above
[9] = target: HLA-A*24:02; experiment: as above
[10] = target: HLA-A*03:01; experiment: IEDB peptide-MHC binding, purified MHC/direct/fluorescence; filed as Kd, often an IC50 or EC50 that approximates it; ≥ and ≤ were set here for values at or beyond the usual limits of such assays; details: source organism: Burkholderia ambifaria AMMD
[11] = target: HLA-A*69:01; experiment: as above
[12] = target: HLA-B*27:05; experiment: as above; details: source organism: SARS-CoV1
[13] = target: HLA-A*01:01; experiment: as above; details: source organism: Influenza A virus (A/chicken/Nanchang/7-010/2000(H3N6))
[14] = target: HLA-A*11:01; experiment: as above; details: source organism: Mycobacterium tuberculosis
[15] = source organism: Vaccinia virus WR
[16] = source organism: Dengue virus 1 Brazil/97-11/1997
[17] = source organism: Dengue virus 2 Jamaica/1409/1983
[18] = source organism: Dengue virus 4 Philippines/H241/1956
[19] = source organism: Dengue virus 3 Martinique/1243/1999
[20] = source organism: Dengue virus 2 Peru/IQT2913/1996
[21] = source organism: Dengue virus 4 Dominica/814669/1981
[22] = source organism: Zaire ebolavirus
[23] = source organism: Yersinia pestis Antiqua
[24] = source organism: Marburg virus - Musoke, Kenya, 1980
[25] = source organism: Mycobacterium tuberculosis
[26] = source organism: Encephalitozoon cuniculi

With KIKSPIYYK the Kd ([1]; source organism: Vaccinia virus Copenhagen) was 0.932 nM.
Sequence KISISYIKL has a Kd [1, 15] of 292 nM.
KKKQRSGVL was tested, and the Kd [2, 16] was 2290 nM.
In the case of KNFAGPVSQ, the Kd [3, 17] is reported as ≥ 44900 nM.
KREDLWCGSL was tested, and the Kd [2, 18] was 4730 nM.
KTALLIVSG showed a Kd [3, 19] of 6830 nM.
KTLAPFNFL showed a Kd [1, 15] of 15 nM.
KTQEPPQVA gave a Kd ([4]; source organism: Haemophilus influenzae) of 7070 nM.
KTSGYISSF showed a Kd [3, 15] of 0.502 nM.
Work on KVRPTFAAG yielded a Kd [1, 17] of 4.4 nM.
KWKNRLNAL was tested, and the Kd [2, 20] was 157 nM.
For LARWGSFKK, the Kd ([1]; source organism: Dengue virus 1 Singapore/S275/1990) was 24.4 nM.
With LAVVSVSPLL the Kd [1, 20] was 11900 nM.
With LEFEALGFMN the Kd [5, 16] was 2660 nM.
With LEHGGCVTTM the Kd [5, 19] was 9.41 nM.
Sequence LEKRHVLGRL has a Kd [2, 17] of 7040 nM.
LFSYGTLII was tested, and the IC50 ([6]; source organism: Variola virus) was ≥ 72.6 µM.
Sequence LGLNSRSTSL has a Kd [2, 16] of 39.9 nM.
For LGRNKKPRL, the Kd [2, 19] was 265 nM.
With LLIHFLLSL the Kd [3, 15] was ≥ 52800 nM.
LLLMRTSWA was tested, and the Kd [2, 19] was 10.3 nM.
In the case of LLNNYTLKI, the Kd [3, 15] is reported as 25.4 nM.
LQLKGMSYSM gave a Kd [2, 17] of 70 nM.
LSPETLVGV was tested, and the IC50 ([6]; source organism: Vaccinia virus) was 0.904 µM.
With LSTRDGEPLM the Kd [1, 18] was 1630 nM.
MLIPKSYAG gave a Kd [2, 21] of 114 nM.
Sequence MTTEDMLAVW has a Kd [7] of 354 nM.
In the case of MWKQITPEL, the Kd [8, 17] is reported as 170 nM.
For NLHYWTTQD, the IC50 [6, 22] was ≥ 124 µM.
NPLTLTAAVL gave a Kd [2, 16] of 305 nM.
NSTLEVTEI was tested, and the IC50 ([6]; source organism: Sudan ebolavirus) was ≥ 97.4 µM.
NYILWENNI showed a Kd [8, 19] of 6.03 nM and a Kd [9, 19] of 2.85 nM.
With NYRPGYFTQ the Kd [9, 16] was ≥ 44400 nM.
With PGPDNSTHN the IC50 [6, 22] was ≥ 472 µM.
With PRRCMKPVIL the Kd [2, 17] was 2470 nM.
In the case of PTVAPPAPV, the IC50 [6, 22] is reported as ≥ 171 µM.
In the case of PWLKNNQFCI, the Kd [8, 19] is reported as 102 nM and the Kd [9, 19] is reported as 224 nM.
PYMPSVVETL showed a Kd [8, 16] of 32.2 nM and a Kd [9, 16] of 31.9 nM.
QWMTTEDMLT showed a Kd [9, 19] of 6100 nM.
RARYKKMLK showed a Kd [1, 15] of 1.04 nM.
For RFGTSLLFL, the Kd [9, 21] was 673 nM.
RLFARTGLE showed a Kd [10] of 748 nM.
With RLKMDKLTL the Kd [2, 16] was 268 nM.
RLKSAVCYK was tested, and the Kd [1, 15] was 0.175 nM.
RQWFFDLPL was tested, and the Kd [3, 19] was 1.17 nM and the Kd [5, 19] was 42 nM.
In the case of RQWFFDLPLP, the Kd [1, 19] is reported as 10800 nM.
RQWFLDLPLP showed a Kd [1, 17] of 11600 nM.
Work on RSGAYVSAI yielded a Kd [3, 17] of 378 nM.
Work on RTKFQNRAK yielded a Kd [1, 15] of 0.159 nM.
In the case of RVLLLTPEV, the Kd [1, 15] is reported as 48.6 nM.
For SGQSPARTS, the IC50 [6, 22] was ≥ 234 µM.
SILGIGTVL was tested, and the IC50 ([6]; source organism: Hepatitis C virus genotype 1) was ≥ 100 µM.
SLGGVFTSI showed a Kd [3, 17] of 294 nM.
For SQGRGWFLL, the Kd [4, 23] was 284 nM and the Kd [11, 23] was ≥ 20 µM.
Work on SRYWEPEFY yielded a Kd [12] of 1190 nM.
With SSEDLNGMI the Kd [13] was ≥ 20 µM.
With STASDTPSA the IC50 [6, 22] was 12.2 µM.
STRVEMGEA showed a Kd [1, 17] of 13.9 nM.
TEDDLQNEEL was tested, and the Kd [5, 21] was 136 nM.
In the case of TEHGTIATI, the Kd [5, 16] is reported as 80 nM.
TIFTLTVAW gave a Kd ([3]; source organism: Dengue virus 3 Sri Lanka/1266/2000) of 157 nM.
In the case of TMLSIILVI, the Kd [3, 15] is reported as 15.6 nM.
TTFGRIGVK gave a Kd [14] of 2 nM.
TWAYHGSYET gave a Kd [9, 17] of 2160 nM.
VESWEEVPYL was tested, and the Kd [5, 17] was 41 nM.
VFGAIYGAAF was tested, and the Kd [8, 17] was 4.48 nM and the Kd [9, 17] was 323 nM.
In the case of VLYNNVVEF, the Kd [3, 15] is reported as 1.45 nM.
For VMNPLGLNV, the Kd [4, 24] was 320 nM and the Kd [11, 24] was 0.78 µM.
VVEPPRQLV was tested, and the Kd [4, 25] was ≥ 5000 nM and the Kd [11, 25] was 20 µM.
WRLSAQWQKG was tested, and the Kd [3, 19] was ≥ 36000 nM.
In the case of WYMWLGARYL, the Kd [8, 19] is reported as 18.2 nM and the Kd [9, 19] is reported as 17.8 nM.
Sequence YLPRFLFGV has a Kd [4, 25] of 1.8 nM.
For YLVPGEGEQ, the Kd [4, 26] was 7000 nM and the Kd [11, 26] was ≥ 20 µM.
Work on YVILTILTI yielded a Kd [9, 18] of 6010 nM.
